In patent publication US20130177500A1 (TRUSTEES OF BOSTON UNIVERSITY, published 2013):

Legend:
[1] = target: T1, human dual endothelin-1/VEGF signal peptide receptor (hDEspR), on cells and tissue (human) (UniProt B0L3A2); experiment: cell-based or functional assay
T1 sequence: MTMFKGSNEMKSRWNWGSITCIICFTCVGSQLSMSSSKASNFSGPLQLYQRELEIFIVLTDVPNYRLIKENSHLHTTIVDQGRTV

[2] = target: T1, human dual endothelin-1/VEGF signal peptide receptor (hDEspR), on cells and tissue (human); experiment: isotype-antibody microbubbles on HUVECs, 800× MB:cell ratio, microscopy (negative control)
[3] = target: T2, antigenic hDEspR 9-aa peptide (NH2-terminal 9 amino acids of hDEspR) (human); experiment: indirect ELISA on the plate-coated antigenic 9-aa hDEspR peptide; two-fold serial dilutions of hybridoma supernatant holding mAb at 1 µg/ml (1 = 1/2 ... 12 = 1/4096); OD450
T2 construct: Free, unconjugated peptide coated on ELISA wells; The KLH conjugate was used only for immunisation; also called DEspR(1-9); free antigenic peptide
T2 peptide: MTMFKGSNE

[4] = target: T3, human dual endothelin-1/VEGF signal peptide receptor (hDEspR), on cells and tissue (human, UniProt B0L3A2 1-85); experiment: cell-based or functional assay
T3 sequence: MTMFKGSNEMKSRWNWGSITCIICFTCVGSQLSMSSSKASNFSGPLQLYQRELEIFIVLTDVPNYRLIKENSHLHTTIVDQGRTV

Molecule: endothelin-1 (from UniProt P05305 53-73) (ligand)
- % CFC, BRCA1 S1497 (Kinex antibody microarray, 30 min, 10 nM ligand) [1]: 32 % CFC
- % CFC, CDK1/2 T14/Y15 (Kinex antibody microarray, 30 min, 10 nM ligand) [1]: 53 % CFC
- % CFC, CDK1/2 Y15 (Kinex antibody microarray, 30 min, 10 nM ligand) [1]: 281 % CFC
- % CFC, ERK1/2 T202 + Y204; T185 + Y187 (Kinex antibody microarray, 30 min, 10 nM ligand) [1]: 135 % CFC
- % CFC, FAK Panspecific (Kinex antibody microarray, 30 min, 10 nM ligand) [1]: 205 % CFC
- % CFC, FAK S722 (Kinex antibody microarray, 30 min, 10 nM ligand) [1]: 55 % CFC
- % CFC, FAK S732 (Kinex antibody microarray, 30 min, 10 nM ligand) [1]: 62 % CFC
- % CFC, Met Panspecific (Kinex antibody microarray, 30 min, 10 nM ligand) [1]: 384 % CFC
- % CFC, PCNA Panspecific (Kinex antibody microarray, 30 min, 10 nM ligand) [1]: -47 % CFC
- % CFC, PKCa T638/T641 (Kinex antibody microarray, 30 min, 10 nM ligand) [1]: 137 % CFC
- % CFC, PKCe Panspecific (Kinex antibody microarray, 30 min, 10 nM ligand) [1]: 103 % CFC
- % CFC, Raf1 S259 (Kinex antibody microarray, 30 min, 10 nM ligand) [1]: 12 % CFC
- % CFC, SHP2 S576 (Kinex antibody microarray, 30 min, 10 nM ligand) [1]: 14 % CFC
- % CFC, STAT1 S727 (Kinex antibody microarray, 30 min, 10 nM ligand) [1]: 86 % CFC
- % CFC, STAT1 Y701 (Kinex antibody microarray, 30 min, 10 nM ligand) [1]: 95 % CFC
- % CFC, STAT3 S727 (Kinex antibody microarray, 30 min, 10 nM ligand) [1]: 133 % CFC
- % CFC, Shc1 or ShcA Y349, Y350 (Kinex antibody microarray, 30 min, 10 nM ligand) [1]: 9 % CFC
- % CFC, Smad 1/5/9 S463 + S465/S465 + S467 (Kinex antibody microarray, 30 min, 10 nM ligand) [1]: 18 % CFC
- % CFC, Src Y418 (Kinex antibody microarray, 30 min, 10 nM ligand) [1]: -11 % CFC
- % CFC, Src Y529 (Kinex antibody microarray, 30 min, 10 nM ligand) [1]: -20 % CFC

Molecule: isotype-antibody control microbubbles (MBC)
- % of HUVECs with bound MBs [2]: 6.8%

B1: anti-hDEspR 7C5B2 monoclonal antibody (antibody, IgG2b, V domains shown)
VH: QVQLKESGPGLVAPSQSLSITCTVSGFSLTSYDISWIRQPPGKGLEWLGVIWTGGGTNYNSAFMSRLSISKDNSKSQVFLKMNSLQTDDTAIYYCVRDRDYDGWYFDVWGAGTTVTVSS
VL: DVLMTQTPLSLPVSLGDQASISCRSSQSIVHSNGNTYLEWYLQKPGQSPKLLIYKVSNRFSGVPDRFSGSGSGTDFTLKISRVEAEDLGVYYCFQGSHVPYTFGGGTKLEIK
notes: Tested as hybridoma supernatant and as purified antibody; also called 7C5B2 antibody; 7C5B2 anti-DEspR antibody
- binding result [3]: binds
- EC50, inhibition of MDA-MB-231 tumor cell invasiveness (Matrigel invasion assay) [4]: 3.55 nM
- EC50, inhibition of total tube length per well (HUVEC tube formation assay) [4]: 4.34 nM
